Measurements from patent US12630600B2 (MEDIMMUNE LIMITED, priority 2022, dated 2026).
Starred links: 1 amine or outer side, 2 acyl side, 3 side chain; linkers in the order of their positions; H or OH if unused. Non-standard residues stand in square brackets, D forms with d. Groups on a side chain read outwards from the residue. No end group written: not given here. *: point of attachment. C20 diacid = O=C(O)CCCCCCCCCCCCCCCCCCC(=O)*; C18 diacid = O=C(O)CCCCCCCCCCCCCCCCC(=O)*; γGlu = O=C(O)[C@H](CCC(=O)[*:2])N[*:1]; αMeF = C[C@](N)(Cc1ccccc1)C(=O)O; AEEA = NCCOCCOCC(=O)O; Aib = CC(C)(N)C(=O)O

B1: Peptide 4 (peptide)
peptide: HSQGS[αMeF]TSDVSK[αMeF]LDSK([AEEA-AEEA-γGlu-C18 diacid])AAQDFVQWIANT-NH2
modifications: N-terminus assumed
SMILES: CC[C@H](C)[C@H](NC(=O)[C@H](Cc1c[nH]c2ccccc12)NC(=O)[C@H](CCC(N)=O)NC(=O)[C@@H](NC(=O)[C@H](Cc1ccccc1)NC(=O)[C@H](CC(=O)O)NC(=O)[C@H](CCC(N)=O)NC(=O)[C@H](C)NC(=O)[C@H](C)NC(=O)[C@H](CCCCNC(=O)COCCOCCNC(=O)COCCOCCNC(=O)CC[C@H](NC(=O)CCCCCCCCCCCCCCCCC(=O)O)C(=O)O)NC(=O)[C@H](CO)NC(=O)[C@H](CC(=O)O)NC(=O)[C@H](CC(C)C)NC(=O)[C@](C)(Cc1ccccc1)NC(=O)[C@H](CCCCN)NC(=O)[C@H](CO)NC(=O)[C@@H](NC(=O)[C@H](CC(=O)O)NC(=O)[C@H](CO)NC(=O)[C@@H](NC(=O)[C@](C)(Cc1ccccc1)NC(=O)[C@H](CO)NC(=O)CNC(=O)[C@H](CCC(N)=O)NC(=O)[C@H](CO)NC(=O)[C@@H](N)Cc1c[nH]cn1)[C@@H](C)O)C(C)C)C(C)C)C(=O)N[C@@H](C)C(=O)N[C@@H](CC(N)=O)C(=O)N[C@H](C(N)=O)[C@@H](C)O
B2: Peptide 151 (peptide)
peptide: H[Aib]QGTFTSDVSK[αMeF]LDSK([AEEA-AEEA-γGlu-C20 diacid])RAQDFVRWLL[Aib]TE-OH
modifications: N-terminus assumed
SMILES: CC(C)C[C@H](NC(=O)[C@H](Cc1c[nH]c2ccccc12)NC(=O)[C@H](CCCNC(=N)N)NC(=O)[C@@H](NC(=O)[C@H](Cc1ccccc1)NC(=O)[C@H](CC(=O)O)NC(=O)[C@H](CCC(N)=O)NC(=O)[C@H](C)NC(=O)[C@H](CCCNC(=N)N)NC(=O)[C@H](CCCCNC(=O)COCCOCCNC(=O)COCCOCCNC(=O)CC[C@H](NC(=O)CCCCCCCCCCCCCCCCCCC(=O)O)C(=O)O)NC(=O)[C@H](CO)NC(=O)[C@H](CC(=O)O)NC(=O)[C@H](CC(C)C)NC(=O)[C@](C)(Cc1ccccc1)NC(=O)[C@H](CCCCN)NC(=O)[C@H](CO)NC(=O)[C@@H](NC(=O)[C@H](CC(=O)O)NC(=O)[C@H](CO)NC(=O)[C@@H](NC(=O)[C@H](Cc1ccccc1)NC(=O)[C@@H](NC(=O)CNC(=O)[C@H](CCC(N)=O)NC(=O)C(C)(C)NC(=O)[C@@H](N)Cc1c[nH]cn1)[C@@H](C)O)[C@@H](C)O)C(C)C)C(C)C)C(=O)N[C@@H](CC(C)C)C(=O)NC(C)(C)C(=O)N[C@H](C(=O)N[C@@H](CCC(=O)O)C(=O)O)[C@@H](C)O
B3: Peptide 20 (peptide)
peptide: H[Aib]HGS[αMeF]TSDVSK[αMeF]LDSK([AEEA-AEEA-γGlu-γGlu-C18 diacid])AARD[αMeF]VE[Aib]IANT-NH2
modifications: N-terminus assumed
SMILES: CC[C@H](C)[C@H](NC(=O)C(C)(C)NC(=O)[C@H](CCC(=O)O)NC(=O)[C@@H](NC(=O)[C@](C)(Cc1ccccc1)NC(=O)[C@H](CC(=O)O)NC(=O)[C@H](CCCNC(=N)N)NC(=O)[C@H](C)NC(=O)[C@H](C)NC(=O)[C@H](CCCCNC(=O)COCCOCCNC(=O)COCCOCCNC(=O)CC[C@H](NC(=O)CC[C@H](NC(=O)CCCCCCCCCCCCCCCCC(=O)O)C(=O)O)C(=O)O)NC(=O)[C@H](CO)NC(=O)[C@H](CC(=O)O)NC(=O)[C@H](CC(C)C)NC(=O)[C@](C)(Cc1ccccc1)NC(=O)[C@H](CCCCN)NC(=O)[C@H](CO)NC(=O)[C@@H](NC(=O)[C@H](CC(=O)O)NC(=O)[C@H](CO)NC(=O)[C@@H](NC(=O)[C@](C)(Cc1ccccc1)NC(=O)[C@H](CO)NC(=O)CNC(=O)[C@H](Cc1c[nH]cn1)NC(=O)C(C)(C)NC(=O)[C@@H](N)Cc1c[nH]cn1)[C@@H](C)O)C(C)C)C(C)C)C(=O)N[C@@H](C)C(=O)N[C@@H](CC(N)=O)C(=O)N[C@H](C(N)=O)[C@@H](C)O
B4: Peptide 140 (peptide)
peptide: H[Aib]QGTFTSDVSK[αMeF]LDTK([AEEA-AEEA-γGlu-C18 diacid])RAQDFVRWLLE[Aib]G-OH
modifications: N-terminus assumed
SMILES: CC(C)C[C@H](NC(=O)[C@H](Cc1c[nH]c2ccccc12)NC(=O)[C@H](CCCNC(=N)N)NC(=O)[C@@H](NC(=O)[C@H](Cc1ccccc1)NC(=O)[C@H](CC(=O)O)NC(=O)[C@H](CCC(N)=O)NC(=O)[C@H](C)NC(=O)[C@H](CCCNC(=N)N)NC(=O)[C@H](CCCCNC(=O)COCCOCCNC(=O)COCCOCCNC(=O)CC[C@H](NC(=O)CCCCCCCCCCCCCCCCC(=O)O)C(=O)O)NC(=O)[C@@H](NC(=O)[C@H](CC(=O)O)NC(=O)[C@H](CC(C)C)NC(=O)[C@](C)(Cc1ccccc1)NC(=O)[C@H](CCCCN)NC(=O)[C@H](CO)NC(=O)[C@@H](NC(=O)[C@H](CC(=O)O)NC(=O)[C@H](CO)NC(=O)[C@@H](NC(=O)[C@H](Cc1ccccc1)NC(=O)[C@@H](NC(=O)CNC(=O)[C@H](CCC(N)=O)NC(=O)C(C)(C)NC(=O)[C@@H](N)Cc1c[nH]cn1)[C@@H](C)O)[C@@H](C)O)C(C)C)[C@@H](C)O)C(C)C)C(=O)N[C@@H](CC(C)C)C(=O)N[C@@H](CCC(=O)O)C(=O)NC(C)(C)C(=O)NCC(=O)O
B5: Peptide 152 (peptide)
peptide: H[Aib]QGTFTSDVSK[αMeF]LDSK([AEEA-AEEA-γGlu-C18 diacid])RAQDFVRWLL[Aib]E-OH
modifications: N-terminus assumed
SMILES: CC(C)C[C@H](NC(=O)[C@H](Cc1c[nH]c2ccccc12)NC(=O)[C@H](CCCNC(=N)N)NC(=O)[C@@H](NC(=O)[C@H](Cc1ccccc1)NC(=O)[C@H](CC(=O)O)NC(=O)[C@H](CCC(N)=O)NC(=O)[C@H](C)NC(=O)[C@H](CCCNC(=N)N)NC(=O)[C@H](CCCCNC(=O)COCCOCCNC(=O)COCCOCCNC(=O)CC[C@H](NC(=O)CCCCCCCCCCCCCCCCC(=O)O)C(=O)O)NC(=O)[C@H](CO)NC(=O)[C@H](CC(=O)O)NC(=O)[C@H](CC(C)C)NC(=O)[C@](C)(Cc1ccccc1)NC(=O)[C@H](CCCCN)NC(=O)[C@H](CO)NC(=O)[C@@H](NC(=O)[C@H](CC(=O)O)NC(=O)[C@H](CO)NC(=O)[C@@H](NC(=O)[C@H](Cc1ccccc1)NC(=O)[C@@H](NC(=O)CNC(=O)[C@H](CCC(N)=O)NC(=O)C(C)(C)NC(=O)[C@@H](N)Cc1c[nH]cn1)[C@@H](C)O)[C@@H](C)O)C(C)C)C(C)C)C(=O)N[C@@H](CC(C)C)C(=O)NC(C)(C)C(=O)N[C@@H](CCC(=O)O)C(=O)O
B6: Peptide 38 (peptide)
peptide: H[Aib]QGTFTSDVSK[αMeF]LDSK([AEEA-AEEA-γGlu-C18 diacid])RAQDFVEWLL[Aib]T-OH
modifications: N-terminus assumed
SMILES: CC(C)C[C@H](NC(=O)[C@H](Cc1c[nH]c2ccccc12)NC(=O)[C@H](CCC(=O)O)NC(=O)[C@@H](NC(=O)[C@H](Cc1ccccc1)NC(=O)[C@H](CC(=O)O)NC(=O)[C@H](CCC(N)=O)NC(=O)[C@H](C)NC(=O)[C@H](CCCNC(=N)N)NC(=O)[C@H](CCCCNC(=O)COCCOCCNC(=O)COCCOCCNC(=O)CC[C@H](NC(=O)CCCCCCCCCCCCCCCCC(=O)O)C(=O)O)NC(=O)[C@H](CO)NC(=O)[C@H](CC(=O)O)NC(=O)[C@H](CC(C)C)NC(=O)[C@](C)(Cc1ccccc1)NC(=O)[C@H](CCCCN)NC(=O)[C@H](CO)NC(=O)[C@@H](NC(=O)[C@H](CC(=O)O)NC(=O)[C@H](CO)NC(=O)[C@@H](NC(=O)[C@H](Cc1ccccc1)NC(=O)[C@@H](NC(=O)CNC(=O)[C@H](CCC(N)=O)NC(=O)C(C)(C)NC(=O)[C@@H](N)Cc1c[nH]cn1)[C@@H](C)O)[C@@H](C)O)C(C)C)C(C)C)C(=O)N[C@@H](CC(C)C)C(=O)NC(C)(C)C(=O)N[C@H](C(=O)O)[C@@H](C)O
B7: Peptide 39 (peptide)
peptide: H[Aib]QGTFTSDVSK[αMeF]LDSK([AEEA-AEEA-γGlu-C18 diacid])RAQDFVRWLL[Aib]TE-OH
modifications: N-terminus assumed
SMILES: CC(C)C[C@H](NC(=O)[C@H](Cc1c[nH]c2ccccc12)NC(=O)[C@H](CCCNC(=N)N)NC(=O)[C@@H](NC(=O)[C@H](Cc1ccccc1)NC(=O)[C@H](CC(=O)O)NC(=O)[C@H](CCC(N)=O)NC(=O)[C@H](C)NC(=O)[C@H](CCCNC(=N)N)NC(=O)[C@H](CCCCNC(=O)COCCOCCNC(=O)COCCOCCNC(=O)CC[C@H](NC(=O)CCCCCCCCCCCCCCCCC(=O)O)C(=O)O)NC(=O)[C@H](CO)NC(=O)[C@H](CC(=O)O)NC(=O)[C@H](CC(C)C)NC(=O)[C@](C)(Cc1ccccc1)NC(=O)[C@H](CCCCN)NC(=O)[C@H](CO)NC(=O)[C@@H](NC(=O)[C@H](CC(=O)O)NC(=O)[C@H](CO)NC(=O)[C@@H](NC(=O)[C@H](Cc1ccccc1)NC(=O)[C@@H](NC(=O)CNC(=O)[C@H](CCC(N)=O)NC(=O)C(C)(C)NC(=O)[C@@H](N)Cc1c[nH]cn1)[C@@H](C)O)[C@@H](C)O)C(C)C)C(C)C)C(=O)N[C@@H](CC(C)C)C(=O)NC(C)(C)C(=O)N[C@H](C(=O)N[C@@H](CCC(=O)O)C(=O)O)[C@@H](C)O

Each binder was assayed against human GLP-1 receptor (human, UniProt P43220) (assay: cell-based or functional assay).
With B1 the “cAMP production, hGLP-1R EC50 (pM)” value was 240 pM. B2 was tested, and the “cAMP production, hGLP-1R EC50 (pM)” value was 111 pM. With B3 the “cAMP production, hGLP-1R EC50 (pM)” value was 152 pM. For B4, the “cAMP production, hGLP-1R EC50 (pM)” value was 22.7 pM. With H[Aib]QGTFTSDVSK[αMeF]LDSK([AEEA-AEEA-γGlu-C18 diacid])RAQDFVQWLL[Aib]TE-OH (not fully specified) [Peptide 150] the “cAMP production, hGLP-1R EC50 (pM)” value was 166 pM. For B5, the “cAMP production, hGLP-1R EC50 (pM)” value was 11.9 pM.

What follows are binders tested against human glucagon receptor (human, UniProt P47871) (assay: cell-based or functional assay).
B1 was tested, and the “cAMP production, hGluc-R EC50 (pM)” value was 1170 pM. In the case of B2, the “cAMP production, hGluc-R EC50 (pM)” value is reported as 178 pM. With H[Aib]QGTFTSDVSK[αMeF]LDSK([AEEA-AEEA-γGlu-C18 diacid])RAQDFVQWLL[Aib]TE-OH (not fully specified) [Peptide 150] the “cAMP production, hGluc-R EC50 (pM)” value was 355 pM. In the case of B5, the “cAMP production, hGluc-R EC50 (pM)” value is reported as 20.4 pM.

Biological target: human GLP-1 receptor (human, UniProt P43220)
Assay: cell-based or functional assay
Remark: another data set of the same source
In the case of B6, the “cAMP production EC50” value is reported as 75.6 pM. With B7 the “cAMP production EC50” value was 76.1 pM.

Biological target: human glucagon receptor (human, UniProt P47871)
Assay: cell-based or functional assay
Remark: another data set of the same source
In the case of B6, the “cAMP production EC50” value is reported as 441 pM. For B7, the “cAMP production EC50” value was 194 pM.
